The target of assay [1] is T1, chimeric protein rhVEGFR-1/Fc (human, UniProt P17948 27-758).
T1 construct: extracellular domain;domain: Fc region; Bought from R&D Systems; also called sVEGFR-1/Fc; not shown: Fc region of human immunoglobulins
The experiment in a line: Western blotting. In general terms: In western blotting, separated proteins are transferred to a membrane and probed.

Assay [2] addresses T2, sVEGFR-1 (soluble VEGFR-1) (Homo sapiens (Human), UniProt P17948 27-656).
T2 construct: Bought from RELIATech; also called soluble form of VEGFR-1
The experiment in a line: ELISA on plates coated with a soluble form of VEGFR-1. (An ELISA detects its analyte on a solid surface through an enzyme-linked reagent.)

T2 sequence (P17948 other isoform, or with tags, fused parts or gaps limits assumed): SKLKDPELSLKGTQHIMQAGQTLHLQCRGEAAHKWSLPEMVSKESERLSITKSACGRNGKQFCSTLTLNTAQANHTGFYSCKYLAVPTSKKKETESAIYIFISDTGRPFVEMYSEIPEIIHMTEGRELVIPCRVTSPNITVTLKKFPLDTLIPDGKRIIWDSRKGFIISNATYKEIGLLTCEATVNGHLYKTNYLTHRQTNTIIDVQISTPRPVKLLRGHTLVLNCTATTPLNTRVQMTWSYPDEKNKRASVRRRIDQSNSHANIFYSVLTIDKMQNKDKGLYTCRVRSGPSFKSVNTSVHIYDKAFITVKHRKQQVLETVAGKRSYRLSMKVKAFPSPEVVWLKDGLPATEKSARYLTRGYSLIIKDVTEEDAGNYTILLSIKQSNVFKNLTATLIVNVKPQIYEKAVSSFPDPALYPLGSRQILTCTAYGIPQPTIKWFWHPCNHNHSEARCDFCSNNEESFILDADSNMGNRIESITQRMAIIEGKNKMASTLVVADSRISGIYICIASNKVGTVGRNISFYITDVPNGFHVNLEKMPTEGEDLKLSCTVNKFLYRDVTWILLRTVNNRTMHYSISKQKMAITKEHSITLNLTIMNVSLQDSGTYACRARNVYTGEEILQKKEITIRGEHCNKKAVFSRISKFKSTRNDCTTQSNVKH
T1 sequence (P17948 27-758, stated change not applied): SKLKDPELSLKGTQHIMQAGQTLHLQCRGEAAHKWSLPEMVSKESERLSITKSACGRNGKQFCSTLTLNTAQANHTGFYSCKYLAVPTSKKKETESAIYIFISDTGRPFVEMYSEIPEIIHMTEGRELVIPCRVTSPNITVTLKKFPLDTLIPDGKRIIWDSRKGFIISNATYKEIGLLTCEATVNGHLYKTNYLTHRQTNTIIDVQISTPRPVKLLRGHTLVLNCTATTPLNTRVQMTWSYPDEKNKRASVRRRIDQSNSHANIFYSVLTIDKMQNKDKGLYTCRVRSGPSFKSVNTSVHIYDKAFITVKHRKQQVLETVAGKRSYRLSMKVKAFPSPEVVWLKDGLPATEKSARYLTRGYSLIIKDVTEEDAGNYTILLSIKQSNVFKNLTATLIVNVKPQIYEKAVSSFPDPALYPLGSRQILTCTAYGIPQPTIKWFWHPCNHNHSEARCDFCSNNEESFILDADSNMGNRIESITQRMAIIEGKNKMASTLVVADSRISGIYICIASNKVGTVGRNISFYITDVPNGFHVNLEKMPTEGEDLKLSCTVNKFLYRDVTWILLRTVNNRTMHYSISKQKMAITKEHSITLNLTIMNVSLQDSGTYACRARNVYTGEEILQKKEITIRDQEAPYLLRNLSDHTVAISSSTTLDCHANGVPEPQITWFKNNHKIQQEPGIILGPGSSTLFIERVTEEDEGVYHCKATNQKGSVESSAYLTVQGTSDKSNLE

B1: monoclonal antibody D16F7 (antibody, V domains shown)
VH: QVQLQQPGSELVRPGASVKLSCKASGYIFTNYWMHWVKQRPGQGLEWIGEIYPRNGNTNYDEKFKGKATLTIDTSSSTAYMQLSSLTSEDSAVYYCATYLGDYWGQGTTLTVSS
VL: DVLMTQTPLSLPVSLGDQASISCRSSQSIVHSNGNTYLEWFLQKPGQSPKLLIYKVSNRFSGIPDRFSGSGSGTDFTLKISRVEAEDLGVYFCFQGSHVPYTFGGGTKLEIK
notes: Mouse IgG1 from a hybridoma (BALB/c mice immunized with peptide A4 as a MAP); also called D16F7 mAb; mAbD16F7
With B1, the binding result in assay [1] and in assay [2] was “binds” throughout.
